Test results as given in US20240287160A1.

Target: EBOV GP on infectious virus (Ebola virus , Mayinga) (UniProt Q05320)
Assay: cell-based or functional assay

Sequence of UniProt Q05320 (Q05320 33-676): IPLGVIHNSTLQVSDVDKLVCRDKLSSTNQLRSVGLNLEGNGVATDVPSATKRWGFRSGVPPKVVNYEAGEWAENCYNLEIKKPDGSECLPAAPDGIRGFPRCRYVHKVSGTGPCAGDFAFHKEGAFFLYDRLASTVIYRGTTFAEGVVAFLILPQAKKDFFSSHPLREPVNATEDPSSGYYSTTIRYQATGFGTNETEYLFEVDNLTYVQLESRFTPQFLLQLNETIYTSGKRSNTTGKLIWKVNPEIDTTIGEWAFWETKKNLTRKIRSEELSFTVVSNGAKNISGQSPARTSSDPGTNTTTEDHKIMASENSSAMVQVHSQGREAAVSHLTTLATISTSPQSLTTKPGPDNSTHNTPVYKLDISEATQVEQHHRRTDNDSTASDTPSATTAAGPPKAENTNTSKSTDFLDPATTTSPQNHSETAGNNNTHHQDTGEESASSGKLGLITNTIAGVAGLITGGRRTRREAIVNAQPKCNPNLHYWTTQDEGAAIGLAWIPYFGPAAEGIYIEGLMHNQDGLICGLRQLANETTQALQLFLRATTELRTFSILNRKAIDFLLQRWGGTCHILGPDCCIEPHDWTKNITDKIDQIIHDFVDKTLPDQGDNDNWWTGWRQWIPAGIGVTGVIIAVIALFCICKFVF

B1: rEBOV-515 (recombinant wild-type IgG1) (antibody, V domains shown)
VH: QVQLHESGPGLVKPSQTLSLTCTVSGGSINSAGYYWTWIRQHPGKGLEWIGYIDYTGRTYYNPSLESRVIISIDTSKNHFSLRLTSVSAADTAVYYCARESSWVSELGRDNWGQGTLVTVSS
VL: EIVMTQSPATLPVSPGEGATLSCRASQSVFTNLAWYQQKPGQAPRLLIYDASTRATGIPARFSGSGSGTEFTLTISSLQSEDFAVYYCQQYNNWPRTYGQGTRVEVK
Work on B1 yielded a half maximal inhibitory concentration (IC50), neutralization of VSV/EBOV GP of less than 1.5 µg/mL.

B2: rEBOV-442 IgG1 (antibody, V domains shown)
VH: EVQLVESGGGLVKPGGSLRLSCTGSGGTGFTFKYAGMSWVRQAPGKGPEWIGRIKSRIDGGTTDYAAPVKDRFIVSRDDSRNTLYLQMNSLKTEDTAVYYCATGSGKGPSASFGESYYYYDFINVWGKGTTVTVSS
VL: ESVLTQSPGTLSLSPGERATLSCRASQSISRKYLAWYQQKPGQAPRLLIYGSSSRATGIPDRFSGSGSGTDFTLTISRLEPEDFAVYYCHQYESSPWTFGQGTKVEIK
B2 gave a half maximal inhibitory concentration (IC50), neutralization of VSV/EBOV GP of less than 1.5 µg/mL.
